Test results taken from the nanobody polyreactivity screen of Harvey et al. (2022).

Assay: yeast display, Sf9 membrane polyspecificity reagent, FACS + sequencing; frameworks hold sequencing errors
Summary of the method: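 After 36–48 hours of galactose induction, yeast (Saccharomyces cerevisiae BJ5465) displaying a synthetic nanobody library were stained at 4 °C for 1 hour with 10% biotinylated, detergent-solubilized Sf9 membrane reagent. Streptavidin microbeads enriched the stained cells before FACS sorting into low and high (top ~1%) gates on anti-HA and streptavidin fluorescence. Each clone's polyreactivity label reflects its gate of origin.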

Sequence | polyreactivity (PSR sort gate)
QVQLVESGGGLVQAGGSLRLSCAASGIILYYYAMGWYRQAPGKERELVAAINWSGGSTSYADSVKGRFTISRDNAKNTVYLQMNSLKPEDTAVYYCAARLGSWHYQVWNYKYEYWGQGTQVTVSS | high polyreactivity
QVQLVESGGGLVQAGGSLRLSCAASGIIQGVYALGWYRQAPGKERELVAAITSSGGSTYYADSVKGRFTISRDNAKNTVYLQMNSLKPEDTAVYYCAADFDTSVRLYGPTRYDYWGQGTQVTVSS | low polyreactivity
QVQLVESGGGLVQAGGSLRLSCAASGIIRHNAMGCYRPAPGKERELVAGISRRGGSTYYADSVKGRFTISRDNAKNTVYLQMNSLKPEDTAVYYCNARSAGSDLDYWGQGTQVTVSS | high polyreactivity
QVQLVESGGGLVQAGGSLRLSCAASGIISGRNTMGWFRLARGKERELVAAISGSGGSTHYADSVKGRFPSSRDNAKNTVYLQSNSLKPEDTAVYYCAADTAYVYSMDYWGQGTQVTVSS | high polyreactivity
QVQLVESGGGLVQAGGSLRLSCAASGIISRSYTMGWYRQAPGKERELVAVISSSGGSTYYADSVKGRFTISRDNAKNTVYLQMNSLKPEDTAVYYCAARPVTRFQGSDYWGQGTQVTVSS | high polyreactivity
QVQLVESGGGLVQAGGSLRLSCAASGIISRWYAMGWYRQAPGKERELVAAIRWSGGRTYYADSVKGRFTISRDNAKNTVYLQMNSLKPEDTAVYYCAADVRQRGIYGPGPHYYWGQGTQVTVSS | low polyreactivity
QVQLVESGGGLVQAGGSLRLSCAASGIISSVYAMGWSRQAPGKERELVAAISGSGGSTYYADSVKGRFTISRDNAKNTVYLQMNSLKPEDTAVYYCAKGYQYQGNSYGYWGQGTQVTVSS | low polyreactivity
QVQLVESGGGLVQAGGSLRLSCAASGIISSVYAMGWYRQAPGKERELVAAISGSGGSTYYADSVKGRFTISRDNAKNTVYLQMNSQKPEDTAVYYCSKGYQYQGNSYGYWGQGTQVTVSS | low polyreactivity
QVQLVESGGGLVQAGGSLRLSCAASGIISYPTVMGWYRQAPGKERELVPAITSGGRTKYADSVKGRFTISRDNAKNTVYLQMNSLKPEDTAVYYCAARTVYWQSWSQFWGYNYWGQGTQVTVSS | low polyreactivity
QVQLVESGGGLVQAGGSLRLSCAASGIIYGRYAMGWYRQAPGKERELVAAINASGGSTYYADSVKGRFTISRDNAKNTVYLQMNSLKPEDSAVYYCATRSTRSRTSGYYYWGQGTQVTVSS | high polyreactivity
QVQLVESGGGLVQAGGSLRLSCAASGIIYITNAMGWYRQAPGKERELVAAISSTVSTNYADSVKGRFTISRDNAKNTVYLQMNSLKPEDTAVYYCAAEWGLTQGESIYDYWGQGTQVTVSS | low polyreactivity
QVQLVESGGGLVQAGGSLRLSCAASGIIYSINAMGWYRQAPGKERELVAAISRSGGSTNYADSVKGRFTISRDNAKNTVYLQMNSLKPEDSAVYYCATVHRYSVWSHNYWGQGTQVTVSS | high polyreactivity
QVQLVESGGGLVQAGGSLRLSCAASGIIYTYYAMGWYRQAPGKERELVARISSSGGRTYYADSVKGRFTISRDNAKNTVYLQMNSLKPEDTAVYYCAAAIVSYGRNDYWGQGTQVTVSS | high polyreactivity
QVQLVESGGGLVQAGGSLRLSCAASGINFAAYVMGWYRQAPGKERELFAAISKSGGRTYYADSVKGRFTISRDNAKNTVYLQMNSLKPEDTAVYYCAASYTYFSFGIGTDVRYGYWGQGTQVTVSS | high polyreactivity
QVQLVESGGGLVQAGGSLRLSCAASGINFGYNVMGWYRQAPGKERELVAAISGSGSSTYYADSVKGRFTISRDNAKNTVYLQMNSLKPEDTAVYYCARQRYEYRTTYYYWGQGTQVTVSS | high polyreactivity
QVQLVESGGGLVQAGGSLRLSCAASGINFNRYAMGWYRQAPGNERELVAAITSSGGSTHYADSVKGRFTISRDNAKNTVYLQMNSLKPEDTAVYYCAKQFPNNYRYYLHYYYWGQGTQVTVSS | low polyreactivity
QVQLVESGGGLVQAGGSLRLSCAASGINFNYYAMGWYRQAPGKERELVAAISSTGSTYYSDSVKGRFTISRDNAKNTVYLQMNSLKPEDTAVYYCAAEWWDTGFANYGYDYWGQGTQVTVSS | high polyreactivity
QVQLVESGGGLVQAGGSLRLSCAASGINFSEYAMGWSRQAPGKERELVAVITSGGSTYYADSVKGRFTISRDNAKNTVYLQMNSLKPEDTAVYYCAARTAYASRYVNVPYYYWGQGTQVTVSS | high polyreactivity
QVQLVESGGGLVQAGGSLRLSCAASGINFVYYAMGWYRQAPGTEREMVAAISKSSGRTYYADSVKGRFTISRDYAKNTVYLQMNSLKPEDTAVYYCNARYRLSPPPLEYWGQGTQVTVSS | high polyreactivity
QVQLVESGGGLVQAGGSLRLSCAASGINLAGYVMGGYRQAPGKERDLVADISSSGDSTYYADSVKGRFTISRDNAKNTVYLQMNSLLPEDTAVYYCAAEEIIPLIYKGYPFDYWGQGSQVTVSS | low polyreactivity

Sequence | polyreactivity (PSR sort gate)
QVQLVESGGGLVQAGGSLRLSCAASGIPLVSYARGWYRPAPGKVRELVAAISTSGGRTRYADSVKGRFTISRDHAKNTVYIQMNSLKPEDTAVYYCAAELVEPRYNHLPGDGNYWGQGTQVTGSS | high polyreactivity
QVQLVESGGGLVQAGGSLRLSCAASGIPRNTMGWYRQAPGKETELVASISTSGGSTYYADSVKGRFTISRDNAKNTVYLQMNSLKPEDTAVYYCAKKGYASRYFIYDYWGQGTQVTVSS | low polyreactivity
QVQLVESGGGLVQAGGSLRLSCAASGISFGNYAMGWYRQAPGKERELVATISRSGGSTYYADSVKGRFTISRDNAKNTVYLQMNSLKPEDTAVYYCAAQDARRIVYYRYYYWGQGTQVTVSS | high polyreactivity
QVQLVESGGGLVQAGGSLRLSCAASGISFYVNAMGSYRQAPGKERELVVAITQSVDITSYADSVKGRFTISRDNEKNTVYLQMNSLKPEVTAVYYCATRVIQDDNARDYWGQGTQVTVSS | low polyreactivity
QVQLVESGGGLVQAGGSLRLSCAASGISYRWYAMGWYRQAPGKERELVAAISSGGSTTYADSVKGRFTISRDNAKNTVYLQMNSLKPEDTAVYYCAARYQWYSADYDYWGQGTQVTVSS | high polyreactivity
QVQLVESGGGLVQAGGSLRLSCAASGITFADNARGWYRQAPGKERELVASISNSSGSTYYADSVKGRFTISRDNAKNTVYLQMNSLKPEDTAVYYCATDPYVRRSPSWYDYWGQGTQVTVSS | low polyreactivity
QVQLVESGGGLVQAGGSLRLSCAASGITFAKYAMGWYRQAPGKERELVAAISTSGGSTYYADSVKGRFTISRDNAKNTVYLQMNSLKPEDTAVYYCNVDTYIWYYLRYYNYWGQGTQVTVSS | high polyreactivity
QVQLVESGGGLVQAGGSLRLSCAASGITFAQYAMGWYRQAPGTERELVAGITRSGGSTHYADSVKGRFTISRDNAKNTVYLQMNSLKPEDTAVYYCNARYPYRGKRKPSDYWGQGTQVTVSS | high polyreactivity
QVQLVESGGGLVQAGGSLRLSCAASGITFASYAMGWYRQAPGKERELVAGISGSGGRTYYADSVKGRFTISRDNAKNTVYLQMNSLKPEDTAVYYCAARQWDIRASPPRYYRYDYWGQGTQVTVSS | high polyreactivity
QVQLVESGGGLVQAGGSLRLSCAASGITFAWNAMGWYRPAPGKEREFVAAINWSGGSTYYADSVKGRFTISRDNAKNTVYLQMNSLKPEDTAVYYCAAYKRSYYPRTLYDYWGQGTQVTVSS | high polyreactivity
QVQLVESGGGLVQAGGSLRLSCAASGITFAYYAKGWYRQAPGKEREFVAAINGGGSTNYADSVKGRFSISRDNAKNTVYLQMNSLKAEDTAVYFCNARRAYRAWYYPYDYWGQGTQVTVSS | high polyreactivity
QVQLVESGGGLVQAGGSLRLSCAASGITFAYYAMGWYRQAPGKERELVAAITGDGGSTYYADSVKGRFTISRDNAKNTVYLQMNSLKPEDTAVYYCNAELSDYRYDWWDYDYWGQGTQVTVSS | high polyreactivity
QVQLVESGGGLVQAGGSLRLSCAASGITFAYYVMGWYRQAPGKERELVAAINWSGGSTYYADSVKGRFTISRDNAKNTVYLQMNSLKPEDTAVYYCAADWSTWYGEKFYWGQGTQVTVSS | high polyreactivity
QVQLVESGGGLVQAGGSLRLSCAASGITFAYYVMGWYRQAPGKERELVAAISRSGSTYYADSVKGRFTISRDNAKNTVYLQMNSLKPEDTAVYYCAVLYIRWYTYEYWGQGTQVTVSS | high polyreactivity
QVQLVESGGGLVQAGGSLRLSCAASGITFDANAMGWYRQAPGKERELVARISSGGSTNYADSVKGRFTISRDNAKNTVYLQMNSLKPEDTAVYYCNTDLTGLDAEYDYWGQGTQVTVSS | low polyreactivity
QVQLVESGGGLVQAGGSLRLSCAASGITFDGYAMGWYRQAPGKERELVAAITYSGGRTYYADSVKGRFTISRDNAKNTVYLQMNSLKPEDTAVYYCAVVSRRLYDYDYWGQGTQVTVSS | high polyreactivity
QVQLVESGGGLVQAGGSLRLSCAASGITFDLYDMGWYRQAPGKERDFVAAITDADSTYYADSVKGRFTISRDNAKNTVYLQMNSLKPEDTAVYYCAADFFYSVYSGHYDYWGQGTQVTVSS | low polyreactivity
QVQLVESGGGLVQAGGSLRLSCAASGITFDNYAMGWYIQAPGKERELVAAITSGDGTYYADSVKWRFTISRDNAKITVYLQMNSLKPEDTAVYACAVQGSRTENYDWYYYGGQGTQVTVSS | low polyreactivity
QVQLVESGGGLVQAGGSLRLSCAASGITFDRYAMGWYRQAPGKERELVAAITTRGTRTYADSVKGRFTISRDNAKNTVYLQMNSLKPEDTAVYYCAATSYRLTYAWPYYYWGQGTQVTVSS | high polyreactivity
QVQLVESGGGLVQAGGSLRLSCAASGITFDTYAMGWYRQAPGKERELVAAISKSGGSTYYADSVKGRFTISRDNAKNTVYLQMNSLKPEDTAVYYCAKDAGSRTVREFGYWGQGTQVTVSS | high polyreactivity
